{"source": "patent US20110311535A1", "binders": {"B1": {"name": "murine NKG2D-Fc fusion protein (IgG2a-IEGR-NKG2D construct) (Fc fusion, mouse, not shown: a dimerising Fc or GST)", "chain": "IEGRETFQPVLCNKEVPVSSREGYCGPCPNNWICHRNNCYQFFNEEKTWNQSQASCLSQNSSLLKIYSKEEQDFLKLVKSYHWMGLVQIPANGSWQWEDGSSLSYNQLTLVEIPKGSCAVYGSSFKAYTEDCANLNTYICMKRAV"}}, "biological_target": "NKG2D ligands expressed on YAC-1 cells", "test": "cell-based or functional assay"}
{"binder": "B1", "values": [{"measurement": "ADCC by thioglycollate-elicited macrophages (percent of target cells)", "result": 55, "unit": "%"}, {"measurement": "complement-dependent lysis of YAC-1 cells", "result": 80, "unit": "%"}]}
